# Assay results published in patent US20200199241A1 (Chugai, published 2020).
# Where a chain is given by its changes, count along the chain named. Names and notes keep the numbering of the source.
# B1: GpH7-B3 D270A/GpL16-k0 (antibody, human IgG1)
# heavy: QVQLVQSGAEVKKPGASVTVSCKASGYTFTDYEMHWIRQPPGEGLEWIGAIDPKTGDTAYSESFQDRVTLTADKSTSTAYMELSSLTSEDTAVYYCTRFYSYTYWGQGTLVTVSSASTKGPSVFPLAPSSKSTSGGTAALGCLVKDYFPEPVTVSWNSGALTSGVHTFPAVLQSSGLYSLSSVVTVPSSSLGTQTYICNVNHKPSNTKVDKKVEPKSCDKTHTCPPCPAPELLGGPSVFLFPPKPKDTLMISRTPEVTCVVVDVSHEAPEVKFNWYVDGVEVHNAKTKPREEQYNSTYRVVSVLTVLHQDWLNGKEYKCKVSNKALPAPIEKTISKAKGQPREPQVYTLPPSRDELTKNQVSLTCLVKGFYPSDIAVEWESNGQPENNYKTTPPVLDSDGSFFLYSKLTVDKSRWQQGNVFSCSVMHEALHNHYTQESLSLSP
# light: DIVMTQSPLSLPVTPGEPASISCQASESLVHSNRNTYLHWYLQKPGQSPQLLIYKVSNRFSGVPDRFSGSGSGTDFTLKISRVEAEDVGVYYCSQNTHVPPTFGQGTKVEIE
# notes: B3 variant; copies: 2 + 2
# B2: GpH7-B3 N325F/GpL16-k0 (antibody, human IgG1)
# heavy: not shown
# light: B1 light
# notes: B3 variant; copies: 2 + 2
# B3: GpH7-B3 D270Y/GpL16-k0 (antibody, human IgG1)
# heavy: not shown
# light: B1 light
# notes: B3 variant; copies: 2 + 2
# B4: GpH7-B3 D270I/GpL16-k0 (antibody, human IgG1)
# heavy: not shown
# light: B1 light
# notes: B3 variant; copies: 2 + 2
# B5: GpH7-B3 D270V/GpL16-k0 (antibody, human IgG1)
# heavy: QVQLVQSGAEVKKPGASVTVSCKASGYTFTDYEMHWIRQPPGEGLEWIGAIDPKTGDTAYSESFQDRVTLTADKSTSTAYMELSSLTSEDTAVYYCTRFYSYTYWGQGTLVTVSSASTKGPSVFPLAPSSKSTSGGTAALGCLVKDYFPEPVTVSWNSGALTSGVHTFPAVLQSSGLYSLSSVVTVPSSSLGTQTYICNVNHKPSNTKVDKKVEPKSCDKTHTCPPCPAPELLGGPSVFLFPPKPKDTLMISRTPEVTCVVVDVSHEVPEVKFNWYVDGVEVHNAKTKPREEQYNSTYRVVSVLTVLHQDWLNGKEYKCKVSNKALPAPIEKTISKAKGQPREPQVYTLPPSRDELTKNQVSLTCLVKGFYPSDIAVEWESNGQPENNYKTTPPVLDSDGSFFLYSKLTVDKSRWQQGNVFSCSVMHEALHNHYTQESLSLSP
# light: B1 light
# notes: B3 variant; copies: 2 + 2
# B6: GpH7-B3 L328K/GpL16-k0 (antibody, human IgG1)
# heavy: not shown
# light: B1 light
# notes: B3 variant; copies: 2 + 2
# B7: GpH7-B3 N325H/GpL16-k0 (antibody, human IgG1)
# heavy: not shown
# light: B1 light
# notes: B3 variant; copies: 2 + 2
# B8: GpH7-B3 D270L/GpL16-k0 (antibody, human IgG1)
# heavy: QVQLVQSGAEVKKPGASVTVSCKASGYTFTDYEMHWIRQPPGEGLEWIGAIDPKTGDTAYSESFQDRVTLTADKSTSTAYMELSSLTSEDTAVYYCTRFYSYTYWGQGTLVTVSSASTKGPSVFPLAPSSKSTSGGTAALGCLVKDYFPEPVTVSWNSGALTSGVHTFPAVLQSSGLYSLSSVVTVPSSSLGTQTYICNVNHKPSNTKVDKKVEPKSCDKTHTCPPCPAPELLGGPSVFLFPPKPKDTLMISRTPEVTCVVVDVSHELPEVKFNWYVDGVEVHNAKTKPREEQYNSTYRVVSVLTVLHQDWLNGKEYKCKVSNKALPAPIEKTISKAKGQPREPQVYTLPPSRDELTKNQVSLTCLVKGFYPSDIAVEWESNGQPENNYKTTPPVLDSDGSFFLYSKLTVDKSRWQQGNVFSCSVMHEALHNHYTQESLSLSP
# light: B1 light
# notes: B3 variant; copies: 2 + 2
# B9: GpH7-B3 L328H/GpL16-k0 (antibody, human IgG1)
# heavy: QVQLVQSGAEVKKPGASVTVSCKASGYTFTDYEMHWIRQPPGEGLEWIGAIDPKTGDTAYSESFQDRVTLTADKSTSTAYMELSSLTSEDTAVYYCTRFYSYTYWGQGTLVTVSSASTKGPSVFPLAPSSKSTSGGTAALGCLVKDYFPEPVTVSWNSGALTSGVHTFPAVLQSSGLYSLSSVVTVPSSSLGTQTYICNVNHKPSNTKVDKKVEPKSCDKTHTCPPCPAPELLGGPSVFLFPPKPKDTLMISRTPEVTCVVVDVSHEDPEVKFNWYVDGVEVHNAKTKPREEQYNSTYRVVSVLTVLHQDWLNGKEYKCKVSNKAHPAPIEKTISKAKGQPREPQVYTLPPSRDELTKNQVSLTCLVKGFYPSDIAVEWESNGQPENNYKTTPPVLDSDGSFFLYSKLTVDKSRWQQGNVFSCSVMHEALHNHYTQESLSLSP
# light: B1 light
# notes: B3 variant; copies: 2 + 2
# B10: GpH7-B3 N325G/GpL16-k0 (antibody, human IgG1)
# heavy: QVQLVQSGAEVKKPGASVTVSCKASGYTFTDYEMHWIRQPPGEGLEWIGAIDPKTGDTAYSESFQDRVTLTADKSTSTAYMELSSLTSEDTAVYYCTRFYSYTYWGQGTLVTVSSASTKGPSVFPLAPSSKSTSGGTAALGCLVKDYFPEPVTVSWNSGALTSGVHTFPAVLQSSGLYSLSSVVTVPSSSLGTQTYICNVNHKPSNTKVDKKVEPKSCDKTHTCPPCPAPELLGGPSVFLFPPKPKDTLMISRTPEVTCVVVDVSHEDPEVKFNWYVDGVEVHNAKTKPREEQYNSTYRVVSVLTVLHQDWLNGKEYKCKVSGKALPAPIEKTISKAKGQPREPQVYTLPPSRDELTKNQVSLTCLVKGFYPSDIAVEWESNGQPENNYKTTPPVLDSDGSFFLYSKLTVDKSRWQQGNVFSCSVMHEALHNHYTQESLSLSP
# light: B1 light
# notes: B3 variant; copies: 2 + 2
# B11: GpH7-B3 N325P/GpL16-k0 (antibody, human IgG1)
# heavy: not shown
# light: B1 light
# notes: B3 variant; copies: 2 + 2
# B12: GpH7-B3 N325K/GpL16-k0 (antibody, human IgG1)
# heavy: not shown
# light: B1 light
# notes: B3 variant; copies: 2 + 2
# B13: GpH7-B3 L328G/GpL16-k0 (antibody, human IgG1)
# heavy: not shown
# light: B1 light
# notes: B3 variant; copies: 2 + 2
# B14: GpH7-B3 D270Q/GpL16-k0 (antibody, human IgG1)
# heavy: not shown
# light: B1 light
# notes: B3 variant; copies: 2 + 2
# B15: GpH7-B3 D270T/GpL16-k0 (antibody, human IgG1)
# heavy: not shown
# light: B1 light
# notes: B3 variant; copies: 2 + 2
# B16: GpH7-B3 L328R/GpL16-k0 (antibody, human IgG1)
# heavy: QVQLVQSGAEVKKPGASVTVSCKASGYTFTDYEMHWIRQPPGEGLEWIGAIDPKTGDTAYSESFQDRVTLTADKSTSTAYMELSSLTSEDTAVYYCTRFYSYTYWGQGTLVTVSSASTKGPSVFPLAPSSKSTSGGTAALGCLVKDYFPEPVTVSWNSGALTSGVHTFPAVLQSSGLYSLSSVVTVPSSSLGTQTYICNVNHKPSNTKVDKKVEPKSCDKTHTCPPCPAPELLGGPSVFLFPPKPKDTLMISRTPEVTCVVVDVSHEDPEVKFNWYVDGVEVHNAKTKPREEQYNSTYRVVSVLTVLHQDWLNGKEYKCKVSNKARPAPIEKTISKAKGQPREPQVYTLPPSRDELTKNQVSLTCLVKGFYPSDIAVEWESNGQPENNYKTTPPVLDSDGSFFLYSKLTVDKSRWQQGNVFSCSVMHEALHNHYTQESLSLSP
# light: B1 light
# notes: B3 variant; copies: 2 + 2
# B17: GpH7-B3 D270F/GpL16-k0 (antibody, human IgG1)
# heavy: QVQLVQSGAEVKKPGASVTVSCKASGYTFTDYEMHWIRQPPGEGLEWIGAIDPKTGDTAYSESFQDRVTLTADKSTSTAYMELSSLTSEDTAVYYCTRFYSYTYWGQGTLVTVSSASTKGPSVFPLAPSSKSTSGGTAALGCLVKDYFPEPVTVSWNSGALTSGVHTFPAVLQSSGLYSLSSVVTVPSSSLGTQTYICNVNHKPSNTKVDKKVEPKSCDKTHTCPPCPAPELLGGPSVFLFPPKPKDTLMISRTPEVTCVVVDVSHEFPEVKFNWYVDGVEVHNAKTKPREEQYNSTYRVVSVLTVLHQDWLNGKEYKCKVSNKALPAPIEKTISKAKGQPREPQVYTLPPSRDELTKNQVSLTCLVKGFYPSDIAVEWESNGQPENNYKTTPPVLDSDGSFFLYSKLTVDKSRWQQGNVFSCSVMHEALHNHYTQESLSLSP
# light: B1 light
# notes: B3 variant; copies: 2 + 2
# B18: GpH7-B3 N325A/GpL16-k0 (antibody, human IgG1)
# heavy: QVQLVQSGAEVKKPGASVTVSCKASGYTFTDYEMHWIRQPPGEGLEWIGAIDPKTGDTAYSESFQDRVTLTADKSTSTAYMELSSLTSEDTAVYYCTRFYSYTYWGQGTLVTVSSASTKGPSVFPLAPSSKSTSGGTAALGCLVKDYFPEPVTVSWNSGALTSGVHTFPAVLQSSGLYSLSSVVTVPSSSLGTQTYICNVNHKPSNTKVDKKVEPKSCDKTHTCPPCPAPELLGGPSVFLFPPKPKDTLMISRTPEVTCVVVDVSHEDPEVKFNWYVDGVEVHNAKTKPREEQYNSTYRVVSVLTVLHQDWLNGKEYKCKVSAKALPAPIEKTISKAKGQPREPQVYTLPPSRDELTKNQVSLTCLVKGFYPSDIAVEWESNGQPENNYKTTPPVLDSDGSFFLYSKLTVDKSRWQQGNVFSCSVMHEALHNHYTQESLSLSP
# light: B1 light
# notes: B3 variant; copies: 2 + 2
# B19: GpH7-B3 L328P/GpL16-k0 (antibody, human IgG1)
# heavy: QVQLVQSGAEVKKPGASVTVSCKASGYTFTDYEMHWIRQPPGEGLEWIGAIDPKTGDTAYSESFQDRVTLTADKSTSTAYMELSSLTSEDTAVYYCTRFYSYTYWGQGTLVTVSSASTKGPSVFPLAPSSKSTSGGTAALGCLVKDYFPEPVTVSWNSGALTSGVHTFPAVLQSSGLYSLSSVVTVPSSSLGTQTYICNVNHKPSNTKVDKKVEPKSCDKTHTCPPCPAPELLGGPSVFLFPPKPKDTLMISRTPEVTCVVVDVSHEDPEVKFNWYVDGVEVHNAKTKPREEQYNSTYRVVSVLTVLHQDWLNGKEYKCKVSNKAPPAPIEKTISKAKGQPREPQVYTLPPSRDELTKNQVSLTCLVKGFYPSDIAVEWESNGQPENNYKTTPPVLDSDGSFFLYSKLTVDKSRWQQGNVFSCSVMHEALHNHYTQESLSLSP
# light: B1 light
# notes: B3 variant; copies: 2 + 2
# B20: GpH7-B3 I332K/GpL16-k0 (antibody, human IgG1)
# heavy: not shown
# light: B1 light
# notes: B3 variant; copies: 2 + 2
# B21: GpH7-B3 D270N/GpL16-k0 (antibody, human IgG1)
# heavy: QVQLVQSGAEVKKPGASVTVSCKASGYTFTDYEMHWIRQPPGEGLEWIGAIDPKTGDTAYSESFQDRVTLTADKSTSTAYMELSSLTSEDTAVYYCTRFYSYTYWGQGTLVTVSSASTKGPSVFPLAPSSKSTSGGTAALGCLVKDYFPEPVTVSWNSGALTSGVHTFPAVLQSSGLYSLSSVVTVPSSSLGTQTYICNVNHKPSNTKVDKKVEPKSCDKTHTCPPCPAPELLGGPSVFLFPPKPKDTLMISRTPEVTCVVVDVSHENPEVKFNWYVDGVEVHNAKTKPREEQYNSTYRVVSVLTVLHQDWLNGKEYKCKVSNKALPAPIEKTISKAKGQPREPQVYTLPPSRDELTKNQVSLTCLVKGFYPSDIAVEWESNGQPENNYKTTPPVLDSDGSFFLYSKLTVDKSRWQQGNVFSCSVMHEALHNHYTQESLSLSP
# light: B1 light
# notes: B3 variant; copies: 2 + 2
# B22: GpH7-B3 D270M/GpL16-k0 (antibody, human IgG1)
# heavy: not shown
# light: B1 light
# notes: B3 variant; copies: 2 + 2
# B23: GpH7-B3 D270H/GpL16-k0 (antibody, human IgG1)
# heavy: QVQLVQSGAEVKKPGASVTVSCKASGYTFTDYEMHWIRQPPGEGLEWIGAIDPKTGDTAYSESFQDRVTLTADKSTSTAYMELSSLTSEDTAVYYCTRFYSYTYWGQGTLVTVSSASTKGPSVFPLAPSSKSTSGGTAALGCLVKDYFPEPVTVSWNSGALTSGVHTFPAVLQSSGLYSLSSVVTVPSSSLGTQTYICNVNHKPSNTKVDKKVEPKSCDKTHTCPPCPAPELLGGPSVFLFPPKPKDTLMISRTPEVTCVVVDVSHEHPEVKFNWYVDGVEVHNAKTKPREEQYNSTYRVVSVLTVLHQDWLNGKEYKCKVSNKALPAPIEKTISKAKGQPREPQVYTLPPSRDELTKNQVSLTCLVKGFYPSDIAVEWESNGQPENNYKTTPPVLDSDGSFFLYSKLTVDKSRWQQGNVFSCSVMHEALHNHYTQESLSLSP
# light: B1 light
# notes: B3 variant; copies: 2 + 2
# B24: GpH7-B3 D270S/GpL16-k0 (antibody, human IgG1)
# heavy: not shown
# light: B1 light
# notes: B3 variant; copies: 2 + 2
# B25: GpH7-B3 I332R/GpL16-k0 (antibody, human IgG1)
# heavy: not shown
# light: B1 light
# notes: B3 variant; copies: 2 + 2
# B26: GpH7-B3 L328N/GpL16-k0 (antibody, human IgG1)
# heavy: not shown
# light: B1 light
# notes: B3 variant; copies: 2 + 2
# B27: GpH7-B3 I332P/GpL16-k0 (antibody, human IgG1)
# heavy: not shown
# light: B1 light
# notes: B3 variant; copies: 2 + 2
# Biological target: T1, human FcγRIIa(H) (human, UniProt P12318 36-217)
# T1 construct: also called FcgRIIaH; hFcgRIIa(H)
# T1 sequence: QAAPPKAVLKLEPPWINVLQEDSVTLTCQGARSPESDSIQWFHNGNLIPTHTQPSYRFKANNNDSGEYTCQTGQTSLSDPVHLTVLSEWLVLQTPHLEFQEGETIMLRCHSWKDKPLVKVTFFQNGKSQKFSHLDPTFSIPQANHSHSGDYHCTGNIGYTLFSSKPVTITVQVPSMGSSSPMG
# Experiment: SPR, captured antibody;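 also: antibody captured on a sensor chip, Fcγ receptor flowed over at 25 °C, receptor binding normalized to the captured antibody amount and expressed relative to the reference antibody ×100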
# Description: (§1) Interaction between each modified antibody and Fcγ receptor prepared in the manner described above was analyzed using the BIACORE™ T100 surface plasmon resonance system (GE Healthcare), BIACORE™ T200 surface plasmon resonance system (GE Healthcare), BIACORE™ A100 surface plasmon resonance system or BIACORE™ 4000 surface plasmon resonance system. HBS-EP+ (GE Healthcare) was used for the running buffer, and measurements were carried out at 25° C. The chips used were chips in which antigen peptides, Protein A (Thermo Scientific), Protein A/G (Thermo Scientific) or Protein L (ACTIGEN® protein (Alltech or BioVision) were immobilized on the Series S Sensor Chip CMS (GE Healthcare) or Series S Sensor Chip CM4 (GE Healthcare) by amine coupling, or chips in which preliminarily biotinylated antigen peptides were allowed to interact and then immobilized on the Series S Sensor Chip SA (certified) (GE Healthcare). The target antibodies were captured on these sensor chips, Fcγ receptor diluted with the running buffer was allowed to interact, followed by measurement of the amount of bound antibody. The amounts bound were compared between antibodies. However, since the amount of Fcγ receptor bound depends on the amount of captured antibody, the values used for comparison were first corrected by dividing the amount of Fcγ receptor bound by the captured amount of each antibody. Through reaction with 10 mM glycine-HCl at pH 1.5, the sensor chips were regenerated by washing off antibody captured on the sensor chips and used repeatedly.
# (§2) Binding strength was evaluated according to the following method based on the results of analyzing the interaction with each FcγR. […] That value was then further multiplied by 100, and the resulting value was used as an indicator of relative binding activity to each FcγR.
row,relative binding activity,Binder
1,66 % of GpH7-B3/GpL16-k0,B1
2,6 % of GpH7-B3/GpL16-k0,B2
3,53 % of GpH7-B3/GpL16-k0,B3
4,43 % of GpH7-B3/GpL16-k0,B4
5,37 % of GpH7-B3/GpL16-k0,B5
6,-2 % of GpH7-B3/GpL16-k0,B6
7,13 % of GpH7-B3/GpL16-k0,B7
8,61 % of GpH7-B3/GpL16-k0,B8
9,47 % of GpH7-B3/GpL16-k0,B9
10,7 % of GpH7-B3/GpL16-k0,B10
11,1 % of GpH7-B3/GpL16-k0,B11
12,0 % of GpH7-B3/GpL16-k0,B12
13,52 % of GpH7-B3/GpL16-k0,B13
14,78 % of GpH7-B3/GpL16-k0,B14
15,38 % of GpH7-B3/GpL16-k0,B15
16,-1 % of GpH7-B3/GpL16-k0,B16
17,62 % of GpH7-B3/GpL16-k0,B17
18,14 % of GpH7-B3/GpL16-k0,B18
19,8 % of GpH7-B3/GpL16-k0,B19
20,59 % of GpH7-B3/GpL16-k0,B20
21,34 % of GpH7-B3/GpL16-k0,B21
22,57 % of GpH7-B3/GpL16-k0,B22
23,53 % of GpH7-B3/GpL16-k0,B23
24,49 % of GpH7-B3/GpL16-k0,B24
25,70 % of GpH7-B3/GpL16-k0,B25
26,34 % of GpH7-B3/GpL16-k0,B26
27,26 % of GpH7-B3/GpL16-k0,B27

# Biological target: T2, human FcγRIIb (human, UniProt P31994 43-217, limits assumed)
# T2 construct: also called FcgRIIb; hFcgRIIb
# T2 sequence: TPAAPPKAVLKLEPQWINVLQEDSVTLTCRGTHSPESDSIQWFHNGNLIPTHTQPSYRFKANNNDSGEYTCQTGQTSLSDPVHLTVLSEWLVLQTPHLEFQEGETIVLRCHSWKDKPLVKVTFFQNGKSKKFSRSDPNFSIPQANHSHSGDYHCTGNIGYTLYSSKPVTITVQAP
# Experiment: SPR, captured antibody;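 also: antibody captured on a sensor chip, Fcγ receptor flowed over at 25 °C, receptor binding normalized to the captured antibody amount and expressed relative to the reference antibody ×100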
# Description: as §1, §2
row,relative binding activity,Binder
1,5 % of GpH7-B3/GpL16-k0,B1
2,72 % of GpH7-B3/GpL16-k0,B2
3,-2 % of GpH7-B3/GpL16-k0,B3
4,1 % of GpH7-B3/GpL16-k0,B4
5,3 % of GpH7-B3/GpL16-k0,B5
6,-4 % of GpH7-B3/GpL16-k0,B6
7,27 % of GpH7-B3/GpL16-k0,B7
8,3 % of GpH7-B3/GpL16-k0,B8
9,82 % of GpH7-B3/GpL16-k0,B9
10,22 % of GpH7-B3/GpL16-k0,B10
11,3 % of GpH7-B3/GpL16-k0,B11
12,-1 % of GpH7-B3/GpL16-k0,B12
13,62 % of GpH7-B3/GpL16-k0,B13
14,0 % of GpH7-B3/GpL16-k0,B14
15,-2 % of GpH7-B3/GpL16-k0,B15
16,-3 % of GpH7-B3/GpL16-k0,B16
17,5 % of GpH7-B3/GpL16-k0,B17
18,27 % of GpH7-B3/GpL16-k0,B18
19,15 % of GpH7-B3/GpL16-k0,B19
20,27 % of GpH7-B3/GpL16-k0,B20
21,-2 % of GpH7-B3/GpL16-k0,B21
22,6 % of GpH7-B3/GpL16-k0,B22
23,-2 % of GpH7-B3/GpL16-k0,B23
24,-1 % of GpH7-B3/GpL16-k0,B24
25,23 % of GpH7-B3/GpL16-k0,B25
26,78 % of GpH7-B3/GpL16-k0,B26
27,41 % of GpH7-B3/GpL16-k0,B27

# Biological target: T3, human FcγRIa (human, UniProt P12314 16-292, limits assumed)
# T3 construct: also called FcgRIa; hFcgRIa
# Experiment: SPR, captured antibody;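 also: antibody captured on a sensor chip, Fcγ receptor flowed over at 25 °C, receptor binding normalized to the captured antibody amount and expressed relative to the reference antibody ×100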
# Description: as §1, §2
row,relative binding activity,Binder
1,87 % of GpH7-B3/GpL16-k0,B1
2,92 % of GpH7-B3/GpL16-k0,B2
3,78 % of GpH7-B3/GpL16-k0,B3
4,88 % of GpH7-B3/GpL16-k0,B4
5,84 % of GpH7-B3/GpL16-k0,B5
6,30 % of GpH7-B3/GpL16-k0,B6
7,93 % of GpH7-B3/GpL16-k0,B7
8,90 % of GpH7-B3/GpL16-k0,B8
9,95 % of GpH7-B3/GpL16-k0,B9
10,95 % of GpH7-B3/GpL16-k0,B10
11,50 % of GpH7-B3/GpL16-k0,B11
12,55 % of GpH7-B3/GpL16-k0,B12
13,92 % of GpH7-B3/GpL16-k0,B13
14,82 % of GpH7-B3/GpL16-k0,B14
15,81 % of GpH7-B3/GpL16-k0,B15
16,26 % of GpH7-B3/GpL16-k0,B16
17,88 % of GpH7-B3/GpL16-k0,B17
18,94 % of GpH7-B3/GpL16-k0,B18
19,78 % of GpH7-B3/GpL16-k0,B19
20,77 % of GpH7-B3/GpL16-k0,B20
21,68 % of GpH7-B3/GpL16-k0,B21
22,90 % of GpH7-B3/GpL16-k0,B22
23,70 % of GpH7-B3/GpL16-k0,B23
24,73 % of GpH7-B3/GpL16-k0,B24
25,95 % of GpH7-B3/GpL16-k0,B25
26,98 % of GpH7-B3/GpL16-k0,B26
27,100 % of GpH7-B3/GpL16-k0,B27

# Biological target: T4, human FcγRIIa(R) (human, UniProt P12318 36-217)
# T4 construct: also called FcgRIIaR; hFcgRIIa(R)
# T4 chain: T1 sequence with H133R
# Experiment: SPR, captured antibody;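 also: antibody captured on a sensor chip, Fcγ receptor flowed over at 25 °C, receptor binding normalized to the captured antibody amount and expressed relative to the reference antibody ×100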
# Description: as §1, §2
row,relative binding activity,Binder
1,3 % of GpH7-B3/GpL16-k0,B1
2,65 % of GpH7-B3/GpL16-k0,B2
3,-2 % of GpH7-B3/GpL16-k0,B3
4,3 % of GpH7-B3/GpL16-k0,B4
5,1 % of GpH7-B3/GpL16-k0,B5
6,-17 % of GpH7-B3/GpL16-k0,B6
7,34 % of GpH7-B3/GpL16-k0,B7
8,6 % of GpH7-B3/GpL16-k0,B8
9,76 % of GpH7-B3/GpL16-k0,B9
10,26 % of GpH7-B3/GpL16-k0,B10
11,2 % of GpH7-B3/GpL16-k0,B11
12,0 % of GpH7-B3/GpL16-k0,B12
13,66 % of GpH7-B3/GpL16-k0,B13
14,2 % of GpH7-B3/GpL16-k0,B14
15,1 % of GpH7-B3/GpL16-k0,B15
16,-13 % of GpH7-B3/GpL16-k0,B16
17,5 % of GpH7-B3/GpL16-k0,B17
18,38 % of GpH7-B3/GpL16-k0,B18
19,15 % of GpH7-B3/GpL16-k0,B19
20,12 % of GpH7-B3/GpL16-k0,B20
21,-1 % of GpH7-B3/GpL16-k0,B21
22,7 % of GpH7-B3/GpL16-k0,B22
23,0 % of GpH7-B3/GpL16-k0,B23
24,0 % of GpH7-B3/GpL16-k0,B24
25,28 % of GpH7-B3/GpL16-k0,B25
26,25 % of GpH7-B3/GpL16-k0,B26
27,34 % of GpH7-B3/GpL16-k0,B27
